The results in this text go back to article PMC3061051 (Nucleic Acids Research, 2010).

What is called stoichiometry N is the number of molecules, sites or subunits per partner or assembly. Usually Kd stands for the constant that tells how readily two partners part at equilibrium.

Data set [1] concerns the molecule itself. Briefly: AUC.
Data set [2] concerns the target T1, Δ(F561-T562-T566)-RECQ1T1 (human, UniProt P46063 49-616, del561-562;del566-566).
T1 sequence: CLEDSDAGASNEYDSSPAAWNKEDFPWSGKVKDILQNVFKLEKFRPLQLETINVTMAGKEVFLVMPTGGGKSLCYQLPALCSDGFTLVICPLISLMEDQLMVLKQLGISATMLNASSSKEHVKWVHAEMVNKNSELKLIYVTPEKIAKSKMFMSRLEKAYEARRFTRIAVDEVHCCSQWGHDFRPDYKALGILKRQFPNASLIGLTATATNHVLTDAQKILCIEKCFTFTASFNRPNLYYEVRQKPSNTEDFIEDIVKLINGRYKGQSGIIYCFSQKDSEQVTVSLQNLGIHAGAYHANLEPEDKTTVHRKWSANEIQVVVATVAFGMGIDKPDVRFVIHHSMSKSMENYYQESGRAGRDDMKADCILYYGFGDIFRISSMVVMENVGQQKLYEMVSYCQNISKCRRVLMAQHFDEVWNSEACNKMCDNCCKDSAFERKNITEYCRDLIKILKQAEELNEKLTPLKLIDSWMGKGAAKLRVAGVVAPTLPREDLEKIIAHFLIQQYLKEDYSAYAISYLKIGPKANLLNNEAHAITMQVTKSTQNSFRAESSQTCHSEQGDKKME
Briefly: EMSA. For orientation: Mobility shift assays separate free from complexed probe on a gel.

The target in data set [3] is W227A-F231A-RECQ1T1 (human, UniProt P46063 49-616, W227A;F231A). Briefly: EMSA.
The target of data set [4] is RECQ1T1 (RECQ1 49-616) (human, UniProt P46063 49-616). The experiment in a line: EMSA.
Data set [5] deals with T2, Y559A-S560A-F561A-RECQ1T1 (human, UniProt P46063 49-616, Y559A;S560A;F561A).
T2 sequence: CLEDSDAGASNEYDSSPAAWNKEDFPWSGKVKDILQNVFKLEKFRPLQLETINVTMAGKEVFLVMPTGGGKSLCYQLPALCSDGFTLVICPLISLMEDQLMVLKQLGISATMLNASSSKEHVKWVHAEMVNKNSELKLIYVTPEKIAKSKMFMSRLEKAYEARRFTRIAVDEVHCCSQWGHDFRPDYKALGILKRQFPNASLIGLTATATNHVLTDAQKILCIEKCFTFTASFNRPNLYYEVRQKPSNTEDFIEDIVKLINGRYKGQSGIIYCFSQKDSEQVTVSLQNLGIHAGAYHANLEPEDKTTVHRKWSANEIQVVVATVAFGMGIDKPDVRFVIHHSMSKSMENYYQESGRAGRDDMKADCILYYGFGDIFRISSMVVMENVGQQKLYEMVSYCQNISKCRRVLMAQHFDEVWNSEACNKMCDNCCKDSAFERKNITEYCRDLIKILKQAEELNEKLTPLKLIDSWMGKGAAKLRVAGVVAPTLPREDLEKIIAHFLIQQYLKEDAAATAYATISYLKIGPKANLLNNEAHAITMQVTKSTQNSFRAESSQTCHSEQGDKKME
Briefly: EMSA.

Data set [6] deals with T3, Y564A-RECQ1T1 (human, UniProt P46063 49-616, Y564A).
T3 sequence: T2 sequence with A511Y, A512S, A513F, Y516A
Briefly: EMSA.

Data set [7] deals with the molecule itself. Briefly: AUC. This is another data set of the same source.
Data set [8] concerns the molecule itself. The experiment in a line: SEC. In general terms: SEC sorts molecules by how far they enter the pores of the column.

Positions count from the first letter of the chain named. Numbers in names are those of the source. Where “and” joins values, the source holds several entries; their conditions need not be identical. Equal entries are not always repeated.

B1: Δ8-Y564A-RECQ1^FL (natural protein, human, UniProt P46063 1-649, looked up)
chain: MASVSALTEELDSITSELHAVEIQIQELTERQQELIQKKKVLTKKIKQCLEDSDAGASNEYDSSPAAWNKEDFPWSGKVKDILQNVFKLEKFRPLQLETINVTMAGKEVFLVMPTGGGKSLCYQLPALCSDGFTLVICPLISLMEDQLMVLKQLGISATMLNASSSKEHVKWVHAEMVNKNSELKLIYVTPEKIAKSKMFMSRLEKAYEARRFTRIAVDEVHCCSQWGHDFRPDYKALGILKRQFPNASLIGLTATATNHVLTDAQKILCIEKCFTFTASFNRPNLYYEVRQKPSNTEDFIEDIVKLINGRYKGQSGIIYCFSQKDSEQVTVSLQNLGIHAGAYHANLEPEDKTTVHRKWSANEIQVVVATVAFGMGIDKPDVRFVIHHSMSKSMENYYQESGRAGRDDMKADCILYYGFGDIFRISSMVVMENVGQQKLYEMVSYCQNISKCRRVLMAQHFDEVWNSEACNKMCDNCCKDSAFERKNITEYCRDLIKILKQAEELNEKLTPLKLIDSWMGKGAAKLRVAGVVAPTLPREDLEKIIAHFLIQQYAAGPKANLLNNEAHAITMQVTKSTQNSFRAESSQTCHSEQGDKKMEEKNSGNFQKKAANMLQQSGSKNTGAKKRKIDDA
Take B1: the “stoichiometry N” value in data set [1] came to 2.

B2: X12 Holliday junction (structured_DNA)
DNA 1: GACGCTGCCGAATTCTGGCTTGCTAGGACATCTTTGCCCACGTTGACCCG
DNA 2: CGGGTCAACGTGGGCAAAGATGTCCTAGCAATGTAATCGTCTATGACGTC
DNA 3: GACGTCATAGACGATTACATTGCTAGGACATGCTGTCTAGAGACTATCGC
DNA 4: GCGATAGTCTCTAGACAGCATGTCCTAGCAAGCCAGAATTCGGCAGCGTC
As for B2, the binding result in data set [2], in data set [3], in data set [4], in data set [5] and in data set [6] was “no binding” each time.

B3: Full-length RECQ1 (RECQ1^FL) (natural protein, human, UniProt P46063 1-649, looked up)
chain: MASVSALTEELDSITSELHAVEIQIQELTERQQELIQKKKVLTKKIKQCLEDSDAGASNEYDSSPAAWNKEDFPWSGKVKDILQNVFKLEKFRPLQLETINVTMAGKEVFLVMPTGGGKSLCYQLPALCSDGFTLVICPLISLMEDQLMVLKQLGISATMLNASSSKEHVKWVHAEMVNKNSELKLIYVTPEKIAKSKMFMSRLEKAYEARRFTRIAVDEVHCCSQWGHDFRPDYKALGILKRQFPNASLIGLTATATNHVLTDAQKILCIEKCFTFTASFNRPNLYYEVRQKPSNTEDFIEDIVKLINGRYKGQSGIIYCFSQKDSEQVTVSLQNLGIHAGAYHANLEPEDKTTVHRKWSANEIQVVVATVAFGMGIDKPDVRFVIHHSMSKSMENYYQESGRAGRDDMKADCILYYGFGDIFRISSMVVMENVGQQKLYEMVSYCQNISKCRRVLMAQHFDEVWNSEACNKMCDNCCKDSAFERKNITEYCRDLIKILKQAEELNEKLTPLKLIDSWMGKGAAKLRVAGVVAPTLPREDLEKIIAHFLIQQYLKEDYSFTAYATISYLKIGPKANLLNNEAHAITMQVTKSTQNSFRAESSQTCHSEQGDKKMEEKNSGNFQKKAANMLQQSGSKNTGAKKRKIDDA
For B3, the “stoichiometry N” value in data set [1] is 4 and 2.

B4: Y564A-RECQ1^FL (natural protein, human, UniProt P46063 1-649, looked up)
chain: B3 chain with Y564A
In the case of B4, the “stoichiometry N” value in data set [1] is 2 and 4.

B5: Fork 20 duplex (dsDNA)
DNA 1: GAACGAACACATCGGGTACGTTTTTTTTTTTTTTTTTTTTTTTTTTTTTT
DNA 2: TTTTTTTTTTTTTTTTTTTTTTTTTTTTTTCGTACCCGATGTGTTCGTTC
As to B5, the results for the Kd in data set [3] and in data set [4] were 10 ± 2 nM and 8 ± 2 nM, respectively.

B6: RECQ1^49-616 (truncated catalytic core of human RECQ1 helicase) (domain or fragment, UniProt P46063 49-616, looked up)
chain: T2 sequence with A511Y, A512S, A513F
For the molecule B6, the “stoichiometry N” value in data set [7] stood at 2.

B7: W227A-F231A-RECQ1^T1 (domain or fragment, human, UniProt P46063 49-616, looked up)
chain: T2 sequence with W179A, F183A, A511Y, A512S, A513F
Take B7: the “stoichiometry N” value in data set [8] turned out to be 2.

B8: Y564A-RECQ1^T1 (domain or fragment, human, UniProt P46063 49-616, looked up)
chain: T2 sequence with A511Y, A512S, A513F, Y516A
Turning to B8, the “stoichiometry N” value in data set [8] stood at 2.
